Numbering of substitutions follows the chain as printed. Names may count otherwise.
How the values were obtained:
[1] = target: T1, HIV-1 reverse transcriptase (HXB2, group M subtype B) (Human immunodeficiency virus 1, UniProt P04585 SEQ:1-560); experiment: inhibition; DDDP, K+ buffer; conditions: tags: expressed in E. coli
Experimental: FIG. 13 Sequence plasticity of stems and loops. Inhibition of RT DDDP activity by aptamer variants. Aptamer concentrations (nM) are indicated above the lanes. (A) Aptamer TKQ4 retains inhibition even though it carries a G-to-A mutation in the fourth of the 12 G's that comprise the quadruplex. […] Similar titrations were carried out in triplicate for all aptamers for which IC50 values are reported. Aptamer R1T was included in subsequent panels to provide a consistent reference baseline of inhibition. (C) RT inhibition by aptamer SN, in which quadruplex loops are replaced with hexaethylene glycol. (D) and (E), RT inhibition by aptamers carrying mutations in helical stem domain, as detailed in text.
(§1) Reactions were assembled in reaction buffer (50 mM Tris-HCl pH 8.3, 75 mM KCl, 5 mM MgCl2, 10 mM DTT) with 30 nM primer, 45 nM template and 0.2 mM dNTPs. After annealing primer and template strands, DNA aptamers were added. Reactions were initiated by adding RT to a final concentration of 3 nM active site. […] Additional reactions included 1 μM and 3 μM where indicated. After 10 min at 37° C., reactions were quenched by addition of 2 volumes (20 μl) of gel-loading buffer (95% formamide with 0.01% bromophenol blue). For reactions assessing monovalent ion dependence, 75 mM KCl was replaced with 75 mM NaCl where indicated.

[2] = target: T1, HIV-1 reverse transcriptase (HXB2, …); experiment: inhibition; DDDP, K+ buffer; conditions: tags: expressed in E. coli; remark: listed apart in the source
Experimental: as §1

[3] = target: T1, HIV-1 reverse transcriptase (HXB2, …); experiment: inhibition; DDDP, K+ buffer; p136 states not significantly different from L1; conditions: tags: expressed in E. coli; hairpin + G4, T16 connector
Experimental: as §1

[4] = hairpin + G4, termini within quadruplex

B1: S4 (ssDNA)
DNA: CGCCTGACCCTTCAGGCGTTGGGTGGGTGGGTGGG
- IC50 ([1]; hairpin (CCCT tetraloop) + G4): 32 nM

B2: ZAM1 (ssDNA)
DNA: CGCCTGATTAGCGCGCGCCGCGTTTTCGCGGCGCGCGCTACTCAGGCGTTGGGTGGGTGGGTGGG
- IC50 ([1]; hairpin (22 bp) + G4): 10 nM

B3: Bcut (ssDNA)
DNA: GGGTTCGCCTGATTAGCGATACTCAGGCGTTGGGTGGGTGGG
- IC50 [2, 4]: 48 nM

B4: L3 (ssDNA)
DNA: CGCCTGATTAGCGATACTCAGGCGTTTTGGGTGGGTGGGTGGG
- IC50 ([2]; hairpin + G4, T4 connector): 13 nM

B5: R2T (ssDNA)
DNA: CGCCTGATTAGCGATACTCAGGCGTTGGGTTGGGTTGGGTTGGG
- IC50 ([1]; hairpin + G4): 13 nM

B6: RT6 (ssDNA)
DNA: ATCCGCCTGATTAGCGATACTCAGGCGTTAGGGAAGGGCGTCGAAAGCAGGGTGGGACTTGAGCAAAATCACCTGCAGGG
- IC50 ([2]; hairpin + G4): 36 nM

B7: S1 (ssDNA)
DNA: CGTGATTAGCGATACTCACGTTGGGTGGGTGGGTGGG
- IC50 ([1]; hairpin + G4): 59 nM

B8: L4 (ssDNA)
DNA: CGCCTGATTAGCGATACTCAGGCGTTTTTTTTGGGTGGGTGGGTGGG
- IC50 ([2]; hairpin + G4, T8 connector): 28 nM

B9: Srevstem (ssDNA)
DNA: CCGGACTCATAGCGATTAGTCCGGTTGGGTGGGTGGGTGGG
- IC50 ([1]; hairpin + G4): 26 nM

B10: Ecut (ssDNA)
DNA: GGGTGGGTGGGTTCGCCTGATTAGCGATACTCAGGCGTTGGG
- IC50 [2, 4]: 99 nM

B11: S2 (ssDNA)
DNA: CGGATTAGCGATACTCCGTTGGGTGGGTGGGTGGG
- IC50 ([1]; hairpin + G4): 110 nM

B12: RT6-A (ssDNA)
DNA: ATCCGCCTGATTAGCGATACTCAGGCGTTAGGGAAGGGTAGCGATACAGGGTGGG
- IC50 ([2]; hairpin + G4): 16 nM

B13: RT6-B (Vor) (ssDNA)
DNA: CGCCTGATTAGCGATACTCAGGCGTTAGGGAAGGGCGTCGAAAGCAGGGTGGG
- IC50 ([2]; hairpin + G4): 5.7 nM

B14: Acutrev (ssDNA)
DNA: GGGTGGGTTGCGGACTCATAGCGATTAGTCCGCTTGGGTGGG
- IC50 [2, 4]: 33 nM

B15: L10 (ssDNA)
DNA: CGCCTGATTAGCGATACTCAGGCGTTTTTTTTTTTTTTTTGGGTGGGTGGGTGGG
- IC50 [3]: 120 nM

B16: R8T (ssDNA)
DNA: CGCCTGATTAGCGATACTCAGGCGTTGGGTTTTTTTTGGGTTTTTTTTGGGTTTTTTTTGGG
- IC50 ([1]; hairpin + G4): 20 nM

B17: R1C (ssDNA)
DNA: CGCCTGATTAGCGATACTCAGGCGTTGGGCGGGCGGGCGGG
- IC50 ([1]; hairpin + G4): 26 nM

B18: R1T (ssDNA)
DNA: B17 DNA with C30T, C34T, C38T
- IC50 ([2]; hairpin + G4): 14 nM

B19: R1A (ssDNA)
DNA: B17 DNA with C30A, C34A, C38A
- IC50 ([1]; hairpin + G4): 18 nM

B20: L6 (ssDNA)
DNA: B17 DNA with T25A, T26A, C30T, C34T, C38T
- IC50 ([2]; hairpin + G4, A2 connector): 13 nM

B21: Acut (ssDNA)
DNA: GGGTGGGTTCGCCTGATTAGCGATACTCAGGCGTTGGGTGGG
- IC50 ([2]; hairpin + G4, termini between 2nd and 3rd G triplets): 22 nM

B22: R4T (ssDNA)
DNA: CGCCTGATTAGCGATACTCAGGCGTTGGGTTTTGGGTTTTGGGTTTTGGG
- IC50 ([1]; hairpin + G4): ~35 nM

— US20090305281, “NOVEL INHIBITORS OF RETROVIRAL REVERSE TRANSCRIPTACE” (THE CURATORS OF THE UNIVERSITY OF MISSOURI, published 2009)
